Here are results for one molecule from patent US20180236024A1 (STC UNM, published 2018).

One data set concerns the target T1, Beclin 1 (UniProt Q14457 1-450).
T1 construct: Flag-tagged overexpressed or endogenous, depending on the experiment; also called Flag-Beclin 1; Flag-Beclin-1
Kind of data set: co-immunoprecipitation, HEK293T lysates.

The target in a further data set is T2, NOD1 (UniProt Q9Y239 1-953).
T2 construct: also called Flag-NOD1
T2 sequence (looked up): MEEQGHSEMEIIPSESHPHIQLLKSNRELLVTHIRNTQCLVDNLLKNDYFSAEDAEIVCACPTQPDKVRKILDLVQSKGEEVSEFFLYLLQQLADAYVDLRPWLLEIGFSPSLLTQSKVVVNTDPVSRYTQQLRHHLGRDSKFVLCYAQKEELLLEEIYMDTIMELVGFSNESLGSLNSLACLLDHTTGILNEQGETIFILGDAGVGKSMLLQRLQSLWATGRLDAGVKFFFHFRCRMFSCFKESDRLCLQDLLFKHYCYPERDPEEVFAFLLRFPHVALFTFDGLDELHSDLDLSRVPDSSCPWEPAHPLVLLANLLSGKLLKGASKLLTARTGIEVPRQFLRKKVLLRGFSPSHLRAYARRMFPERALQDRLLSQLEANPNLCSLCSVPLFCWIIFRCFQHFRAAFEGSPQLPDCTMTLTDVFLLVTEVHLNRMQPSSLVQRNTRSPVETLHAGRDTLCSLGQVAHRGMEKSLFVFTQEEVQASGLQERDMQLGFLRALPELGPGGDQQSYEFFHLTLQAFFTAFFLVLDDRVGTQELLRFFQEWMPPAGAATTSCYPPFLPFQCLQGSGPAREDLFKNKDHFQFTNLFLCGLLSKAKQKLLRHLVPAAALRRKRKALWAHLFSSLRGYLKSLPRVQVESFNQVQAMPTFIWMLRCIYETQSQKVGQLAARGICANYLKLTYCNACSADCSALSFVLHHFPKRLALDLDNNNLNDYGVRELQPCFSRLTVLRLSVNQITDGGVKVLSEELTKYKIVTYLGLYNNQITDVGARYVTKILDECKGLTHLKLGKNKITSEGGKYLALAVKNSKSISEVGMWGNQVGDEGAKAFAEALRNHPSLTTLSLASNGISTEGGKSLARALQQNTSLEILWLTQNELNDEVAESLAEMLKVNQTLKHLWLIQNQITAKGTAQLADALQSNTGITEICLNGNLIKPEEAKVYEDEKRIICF
Kind of data set: co-IP with anti-GFP, GFP-IRGM and Flag-NOD1.

The next data set deals with T3, RIG-I (UniProt O95786 1-925).
T3 construct: also called Flag-Rig-I
T3 sequence (looked up): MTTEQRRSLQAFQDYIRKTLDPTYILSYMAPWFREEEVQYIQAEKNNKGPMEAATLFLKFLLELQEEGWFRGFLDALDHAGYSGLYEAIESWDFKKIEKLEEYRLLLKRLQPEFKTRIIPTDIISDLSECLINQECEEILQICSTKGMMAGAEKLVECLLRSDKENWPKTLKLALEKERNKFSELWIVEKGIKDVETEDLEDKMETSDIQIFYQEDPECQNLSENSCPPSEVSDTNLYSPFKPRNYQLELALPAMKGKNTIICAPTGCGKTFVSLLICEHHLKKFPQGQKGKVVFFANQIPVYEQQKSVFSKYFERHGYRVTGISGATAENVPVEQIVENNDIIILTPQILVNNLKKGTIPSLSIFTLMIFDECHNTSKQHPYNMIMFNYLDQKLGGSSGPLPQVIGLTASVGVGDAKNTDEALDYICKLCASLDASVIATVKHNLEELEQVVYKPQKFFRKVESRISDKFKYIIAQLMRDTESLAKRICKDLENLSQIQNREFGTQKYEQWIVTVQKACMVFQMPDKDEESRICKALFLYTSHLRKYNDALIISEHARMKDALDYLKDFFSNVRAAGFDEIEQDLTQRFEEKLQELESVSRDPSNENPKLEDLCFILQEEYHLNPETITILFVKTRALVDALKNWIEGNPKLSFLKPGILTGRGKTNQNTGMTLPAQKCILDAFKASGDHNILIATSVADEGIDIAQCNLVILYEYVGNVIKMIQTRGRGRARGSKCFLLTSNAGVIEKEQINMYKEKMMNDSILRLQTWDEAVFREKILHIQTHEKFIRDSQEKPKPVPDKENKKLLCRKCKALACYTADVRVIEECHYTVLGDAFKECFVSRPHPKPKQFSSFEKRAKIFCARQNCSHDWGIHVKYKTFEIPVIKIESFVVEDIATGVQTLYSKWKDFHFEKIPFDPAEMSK
Kind of data set: co-IP with anti-GFP, GFP-IRGM and Flag-Rig-I.

In a further data set the target is T4, Rubicon (UniProt Q92622 1-972, limits assumed).
T4 sequence (looked up): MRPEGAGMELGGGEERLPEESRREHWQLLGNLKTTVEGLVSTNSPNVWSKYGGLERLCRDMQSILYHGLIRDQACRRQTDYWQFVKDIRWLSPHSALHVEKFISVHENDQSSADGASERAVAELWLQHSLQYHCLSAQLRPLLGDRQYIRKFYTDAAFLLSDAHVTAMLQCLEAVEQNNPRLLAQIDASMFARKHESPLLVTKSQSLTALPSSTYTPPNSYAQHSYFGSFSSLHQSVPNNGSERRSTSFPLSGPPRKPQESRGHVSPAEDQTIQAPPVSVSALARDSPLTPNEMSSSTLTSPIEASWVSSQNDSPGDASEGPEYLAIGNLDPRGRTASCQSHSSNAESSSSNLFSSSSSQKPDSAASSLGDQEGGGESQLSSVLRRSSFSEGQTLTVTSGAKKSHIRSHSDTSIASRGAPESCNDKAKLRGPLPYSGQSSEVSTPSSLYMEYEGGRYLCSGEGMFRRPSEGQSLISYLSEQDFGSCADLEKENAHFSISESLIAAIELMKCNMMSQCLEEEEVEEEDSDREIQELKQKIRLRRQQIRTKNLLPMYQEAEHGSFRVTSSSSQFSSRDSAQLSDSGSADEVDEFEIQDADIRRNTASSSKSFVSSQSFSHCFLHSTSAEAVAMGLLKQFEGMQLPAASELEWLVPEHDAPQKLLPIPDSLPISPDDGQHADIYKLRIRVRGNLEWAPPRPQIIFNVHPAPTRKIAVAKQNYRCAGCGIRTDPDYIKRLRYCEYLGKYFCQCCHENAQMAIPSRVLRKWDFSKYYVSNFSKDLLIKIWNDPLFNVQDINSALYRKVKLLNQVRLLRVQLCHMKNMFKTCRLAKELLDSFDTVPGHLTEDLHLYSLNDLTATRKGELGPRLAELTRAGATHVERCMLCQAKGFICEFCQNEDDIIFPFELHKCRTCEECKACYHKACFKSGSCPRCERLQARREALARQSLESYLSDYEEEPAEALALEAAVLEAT
Kind of data set: co-immunoprecipitation, HEK293T cells expressing GFP-IRGM.

Data set [1] deals with the molecule itself. Kind of data set: co-IP of differently tagged IRGM, HEK293T cells.

T1 sequence (Q14457 whole entry): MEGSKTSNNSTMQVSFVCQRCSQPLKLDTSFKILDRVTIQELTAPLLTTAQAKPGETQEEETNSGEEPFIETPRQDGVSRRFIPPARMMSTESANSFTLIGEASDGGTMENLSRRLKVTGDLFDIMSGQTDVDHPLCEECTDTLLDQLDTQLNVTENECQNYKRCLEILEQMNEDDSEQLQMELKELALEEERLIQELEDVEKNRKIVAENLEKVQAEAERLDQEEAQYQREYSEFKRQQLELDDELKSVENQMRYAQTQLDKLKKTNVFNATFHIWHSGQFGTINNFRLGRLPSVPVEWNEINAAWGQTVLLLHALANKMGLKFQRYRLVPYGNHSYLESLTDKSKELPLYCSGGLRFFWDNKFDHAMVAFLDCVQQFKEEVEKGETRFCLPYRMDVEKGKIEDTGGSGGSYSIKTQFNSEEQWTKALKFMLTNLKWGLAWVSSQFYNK

B1: IRGM (human IRGM, isoform d) (other, UniProt A1A4Y4-4 1-202, looked up)
chain: MEAMNVEKASADGNLPEVISNIKETLKIVSRTPVNITMAGDSGNGMSTFISALRNTGHEGKASPPTELVKATQRCASYFSSHFSNVVLWDLPGTGSATTTLENYLMEMQFNRYDFIMVASAQFSMNHVMLAKTAEDMGKKFYIVWTKLDMDLSTGALPEVQLLQIRENVLENLQKERLACHEKYLKSTPENSTRPRNINLCS
notes: Stood in cell lysates as GFP-, Flag- or V5-tagged protein or as the endogenous protein, depending on the experiment; Isoform d is said to be used in all experiments; also called GFP-IRGM; GFP-IRGMd
Turning to B1, the binding result was “binds” with Beclin 1; “binds” with NOD1; “binds” in the data set with RIG-I; “no binding” with Rubicon; “binds” in data set [1].
